Source: publication PMC4022731 (PLoS Pathogens, 2014)

Target: Flag-tagged HCMV gp68 expressed by recombinant vaccinia virus (human cytomegalovirus, UniProt P16739)
Test: co-IP
Details: one partner purified

Chain of Flag-tagged HCMV gp68 expressed by recombinant vaccinia virus (P16739 24-345): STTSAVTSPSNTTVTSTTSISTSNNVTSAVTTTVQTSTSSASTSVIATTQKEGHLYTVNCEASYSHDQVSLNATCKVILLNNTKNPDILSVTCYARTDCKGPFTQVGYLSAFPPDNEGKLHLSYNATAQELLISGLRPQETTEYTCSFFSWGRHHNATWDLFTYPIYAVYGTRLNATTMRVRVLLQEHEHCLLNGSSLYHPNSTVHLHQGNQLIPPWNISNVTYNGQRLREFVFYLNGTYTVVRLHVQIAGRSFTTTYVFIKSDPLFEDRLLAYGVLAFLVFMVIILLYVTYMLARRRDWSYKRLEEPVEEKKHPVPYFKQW

B1: palivizumab (antibody, V domains shown)
VH: QVTLRESGPALVKPTQTLTLTCTFSGFSLSTSGMSVGWIRQPPGKALEWLADIWWDDKKDYNPSLKSRLTISKDTSKNQVVLKVTNMDPADTATYYCARSMITNWYFDVWGAGTTVTVSS
VL: DIQMTQSPSTLSASVGDRVTITCKCQLSVGYMHWYQQKPGKAPKLLIYDTSKLASGVPSRFSGSGSGTEFTLTISSLQPDDFATYYCFQGSGYPFTFGGGTKLEIK
notes: also called IgG1 isotype control antibody; source: bought: MedImmune
Q: Does B1 bind?
A: binds
